Laboratory results as given in patent US20100298213A1, “Pharmaceutically Active Insulin Receptor-Modulating Molecules” (Novo Nordisk A/S, priority 2004, published 2010).
Square brackets hold non-standard residues; d marks the D form. Ends that are not written are not given here. Dip = N[C@H](C(=O)O)C(c1ccccc1)c1ccccc1; Aib = CC(C)(N)C(=O)O

Legend:
[1] = target: HIR +11 (human insulin receptor, B isoform) (Homo sapiens, UniProt P06213); assay: Binding of IM peptides to IR isoform HIR +11; conditions: +11 (B) isoform
Description: (§1) A number of IRBPs (S519; S557; S597; S636; S667; S733; S671; S660; S696; S574; S700; S626; and S726), some of which described in the prior patent documents, were applied to A and B isoforms (−11 and +11 isoforms) of the human, rat, and pig insulin receptors (HIR, RIR, and PIR) using standard methods.

[2] = target: RIR +11 (rat insulin receptor, B isoform) (Rattus norvegicus, UniProt P15127); assay: Binding of IM peptides to IR isoform RIR +11; conditions: +11 (B) isoform
Sequence of RIR +11 (rat insulin receptor, B isoform) (P15127 27-759 limits assumed): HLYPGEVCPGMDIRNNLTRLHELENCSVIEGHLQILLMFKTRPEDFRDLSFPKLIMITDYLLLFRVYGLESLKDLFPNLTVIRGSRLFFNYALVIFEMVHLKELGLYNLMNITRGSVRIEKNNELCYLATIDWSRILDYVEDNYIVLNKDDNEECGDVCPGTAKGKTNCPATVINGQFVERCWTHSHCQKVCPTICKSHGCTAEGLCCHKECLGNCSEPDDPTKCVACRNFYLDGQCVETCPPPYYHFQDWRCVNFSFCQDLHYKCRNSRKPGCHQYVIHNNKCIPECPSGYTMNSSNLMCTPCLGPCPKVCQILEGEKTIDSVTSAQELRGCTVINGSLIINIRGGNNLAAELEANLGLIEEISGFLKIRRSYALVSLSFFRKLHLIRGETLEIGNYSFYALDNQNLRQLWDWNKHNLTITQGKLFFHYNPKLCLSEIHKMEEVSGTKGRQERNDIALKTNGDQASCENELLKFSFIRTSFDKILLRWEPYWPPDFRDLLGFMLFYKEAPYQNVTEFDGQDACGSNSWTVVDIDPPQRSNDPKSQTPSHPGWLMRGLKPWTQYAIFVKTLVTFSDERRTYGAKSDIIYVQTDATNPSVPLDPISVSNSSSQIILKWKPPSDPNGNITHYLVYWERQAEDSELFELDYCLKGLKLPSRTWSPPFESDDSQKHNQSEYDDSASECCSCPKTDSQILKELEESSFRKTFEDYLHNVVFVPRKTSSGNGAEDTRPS
Sequence of RIR +11 (rat insulin receptor, B isoform) (P15127 764-1383 partner limits assumed): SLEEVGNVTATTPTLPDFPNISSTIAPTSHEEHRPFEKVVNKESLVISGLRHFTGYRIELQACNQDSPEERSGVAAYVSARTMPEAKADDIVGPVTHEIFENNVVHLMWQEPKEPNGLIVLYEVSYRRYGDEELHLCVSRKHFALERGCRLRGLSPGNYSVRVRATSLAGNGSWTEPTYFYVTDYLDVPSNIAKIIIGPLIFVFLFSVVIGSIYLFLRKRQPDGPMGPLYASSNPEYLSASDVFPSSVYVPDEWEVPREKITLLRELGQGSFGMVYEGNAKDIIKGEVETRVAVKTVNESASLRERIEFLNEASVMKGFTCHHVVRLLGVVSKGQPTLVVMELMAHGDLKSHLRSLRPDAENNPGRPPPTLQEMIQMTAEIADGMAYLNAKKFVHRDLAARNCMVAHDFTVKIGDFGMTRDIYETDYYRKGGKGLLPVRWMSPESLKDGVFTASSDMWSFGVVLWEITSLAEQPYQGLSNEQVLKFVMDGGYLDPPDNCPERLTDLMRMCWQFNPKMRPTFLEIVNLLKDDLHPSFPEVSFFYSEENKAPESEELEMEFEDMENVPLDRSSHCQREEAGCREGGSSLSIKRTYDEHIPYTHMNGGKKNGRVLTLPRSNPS
Description: as §1

[3] = test system: mouse adipocytes; assay: Glucose uptake in mouse adipocytes (FFC); assay type: cell-based; conditions: for EC50 (FFC) rel. to HI: EC50 value expressed relative to that of human insulin in the same assay; for EC50: concentration needed for half maximal uptake of glucose in mouse adipocytes
[4] = test system: PIR +11 (pig insulin receptor, B isoform); assay: Binding of IM peptides to IR isoform PIR +11; conditions: +11 (B) isoform
Description: as §1

[5] = target: HIR −11 (human insulin receptor, A isoform) (Homo sapiens, UniProt P06213); assay: Binding of IM peptides to IR isoform HIR −11; conditions: −11 (A) isoform
Description: as §1

[6] = target: RIR −11 (rat insulin receptor, A isoform) (Rattus norvegicus, UniProt P15127); assay: Binding of IM peptides to IR isoform RIR −11; conditions: −11 (A) isoform
Sequence of RIR −11 (rat insulin receptor, A isoform) (P15127 27-1371 isoform P15127-2 limits assumed): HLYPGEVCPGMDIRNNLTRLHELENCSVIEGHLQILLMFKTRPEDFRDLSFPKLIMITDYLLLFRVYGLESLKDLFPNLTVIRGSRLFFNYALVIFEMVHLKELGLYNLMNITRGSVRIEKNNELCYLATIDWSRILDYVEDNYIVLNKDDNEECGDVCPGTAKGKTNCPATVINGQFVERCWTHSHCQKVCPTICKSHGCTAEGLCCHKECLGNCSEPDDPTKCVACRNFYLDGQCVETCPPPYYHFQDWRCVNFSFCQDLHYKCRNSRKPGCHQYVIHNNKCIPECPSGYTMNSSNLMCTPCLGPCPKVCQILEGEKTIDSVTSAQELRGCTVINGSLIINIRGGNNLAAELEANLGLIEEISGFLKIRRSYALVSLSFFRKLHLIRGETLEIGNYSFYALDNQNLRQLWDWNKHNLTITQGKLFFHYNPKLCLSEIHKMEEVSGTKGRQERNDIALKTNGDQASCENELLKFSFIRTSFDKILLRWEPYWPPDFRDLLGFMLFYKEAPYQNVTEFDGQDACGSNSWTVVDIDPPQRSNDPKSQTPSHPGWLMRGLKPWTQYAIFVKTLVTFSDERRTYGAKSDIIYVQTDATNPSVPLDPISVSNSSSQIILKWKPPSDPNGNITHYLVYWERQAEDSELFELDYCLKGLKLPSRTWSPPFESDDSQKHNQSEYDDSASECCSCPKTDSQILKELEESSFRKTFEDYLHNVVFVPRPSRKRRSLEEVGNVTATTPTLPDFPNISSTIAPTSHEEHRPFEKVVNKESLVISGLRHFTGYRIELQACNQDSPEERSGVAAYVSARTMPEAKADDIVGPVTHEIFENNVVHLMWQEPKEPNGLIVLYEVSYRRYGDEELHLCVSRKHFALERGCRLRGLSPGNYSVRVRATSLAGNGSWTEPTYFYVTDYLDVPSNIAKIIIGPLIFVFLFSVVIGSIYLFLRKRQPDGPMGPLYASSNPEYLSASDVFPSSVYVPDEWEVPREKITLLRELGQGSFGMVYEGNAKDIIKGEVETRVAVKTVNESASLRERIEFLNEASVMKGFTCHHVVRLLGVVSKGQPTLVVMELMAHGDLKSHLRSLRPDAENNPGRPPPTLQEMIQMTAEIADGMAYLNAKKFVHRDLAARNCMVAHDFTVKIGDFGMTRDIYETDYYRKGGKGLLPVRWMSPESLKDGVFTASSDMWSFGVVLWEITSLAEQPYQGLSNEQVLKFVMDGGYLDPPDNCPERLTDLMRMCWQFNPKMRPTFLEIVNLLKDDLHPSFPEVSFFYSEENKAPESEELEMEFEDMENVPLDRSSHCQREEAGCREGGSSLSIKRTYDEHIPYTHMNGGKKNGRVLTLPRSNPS
Sequence of RIR −11 (rat insulin receptor, A isoform) (P15127 764-1383 partner limits assumed): as the sequence (P15127 764-1383 partner limits assumed) above
Description: as §1

[7] = test system: PIR −11 (pig insulin receptor, A isoform); assay: Binding of IM peptides to IR isoform PIR −11; conditions: −11 (A) isoform
Description: as §1

[8] = target: human IR (HIR) (Homo sapiens, UniProt P06213); assay: Human IR affinity (Kd); assay type: binding; conditions: Kd value expressed relative to that of human insulin in the same assay
[9] = test system: pepsin, elastase, chymotrypsin, trypsin, and carboxy-peptidase A; assay: Digestion with digestive enzymes (enzymatic stability); assay type: in vitro ADME
Description: A novel IRBP was derived from S597 by introducing the unusual amino acid residues aminoisobutyric acid and diphenylalanine into the Xaa7 position of the N-terminal Formula 6-like IRBAAS sequence of S597 (in place of Ala) and into the Xaa1 position of the C-terminal Formula 1 sequence (in place of Phe).

[10] = test system: wistar rats; assay: Blood glucose after administration to wistar rats; assay type: in vivo, rat
Description: IRBP S667 was and human insulin were administered to wistar rats (S667 at 1.25 nmol/kg; 2.5 nmol/kg; and 5 nmol/kg; human insulin (HI) at 1.25 nmol/kg) using standard techniques, such as are described in the prior patent documents. Glucose measurements were taken 20 minutes prior to administration, at administration, and 20; 40; 60; 80; 120; and 180 minutes after administration. These measurements are compared in FIG. 3.

[11] = target: T1, rat insulin receptor isoform without exon 11 (rat, UniProt P15127-2 27-1371, limits assumed); assay: receptor binding, standard methods (FIG. 2)
T1 construct: also called RIR-11; RIR - 11
T1 sequence (P15127 other isoform, or with tags, fused parts or gaps limits assumed): as the sequence (P15127 27-1371 isoform P15127-2 limits assumed) above
Description: as §1

[12] = target: T2, human insulin receptor isoform without exon 11 (human, UniProt P06213-2 28-1370, limits assumed); assay: receptor binding, standard methods (FIG. 2)
T2 construct: also called HIR-11; HIR - 11
Description: as §1

[13] = target: T3, pig insulin receptor isoform without exon 11 (pig, UniProt F1SCK8 28-746; F1SCK8 751-1370); assay: receptor binding, standard methods (FIG. 2)
T3 construct: also called PIR-11; PIR - 11
Description: as §1

[14] = target: insulin receptor on mouse adipocytes (mouse, UniProt P15208 28-1372); assay: cell-based or functional assay
[15] = target: rat insulin receptor isoform with exon 11 (rat) (UniProt P15127); assay: receptor binding, standard methods (FIG. 2)
Sequence of rat insulin receptor isoform with exon 11 (rat) (P15127 27-1383, stated change not applied): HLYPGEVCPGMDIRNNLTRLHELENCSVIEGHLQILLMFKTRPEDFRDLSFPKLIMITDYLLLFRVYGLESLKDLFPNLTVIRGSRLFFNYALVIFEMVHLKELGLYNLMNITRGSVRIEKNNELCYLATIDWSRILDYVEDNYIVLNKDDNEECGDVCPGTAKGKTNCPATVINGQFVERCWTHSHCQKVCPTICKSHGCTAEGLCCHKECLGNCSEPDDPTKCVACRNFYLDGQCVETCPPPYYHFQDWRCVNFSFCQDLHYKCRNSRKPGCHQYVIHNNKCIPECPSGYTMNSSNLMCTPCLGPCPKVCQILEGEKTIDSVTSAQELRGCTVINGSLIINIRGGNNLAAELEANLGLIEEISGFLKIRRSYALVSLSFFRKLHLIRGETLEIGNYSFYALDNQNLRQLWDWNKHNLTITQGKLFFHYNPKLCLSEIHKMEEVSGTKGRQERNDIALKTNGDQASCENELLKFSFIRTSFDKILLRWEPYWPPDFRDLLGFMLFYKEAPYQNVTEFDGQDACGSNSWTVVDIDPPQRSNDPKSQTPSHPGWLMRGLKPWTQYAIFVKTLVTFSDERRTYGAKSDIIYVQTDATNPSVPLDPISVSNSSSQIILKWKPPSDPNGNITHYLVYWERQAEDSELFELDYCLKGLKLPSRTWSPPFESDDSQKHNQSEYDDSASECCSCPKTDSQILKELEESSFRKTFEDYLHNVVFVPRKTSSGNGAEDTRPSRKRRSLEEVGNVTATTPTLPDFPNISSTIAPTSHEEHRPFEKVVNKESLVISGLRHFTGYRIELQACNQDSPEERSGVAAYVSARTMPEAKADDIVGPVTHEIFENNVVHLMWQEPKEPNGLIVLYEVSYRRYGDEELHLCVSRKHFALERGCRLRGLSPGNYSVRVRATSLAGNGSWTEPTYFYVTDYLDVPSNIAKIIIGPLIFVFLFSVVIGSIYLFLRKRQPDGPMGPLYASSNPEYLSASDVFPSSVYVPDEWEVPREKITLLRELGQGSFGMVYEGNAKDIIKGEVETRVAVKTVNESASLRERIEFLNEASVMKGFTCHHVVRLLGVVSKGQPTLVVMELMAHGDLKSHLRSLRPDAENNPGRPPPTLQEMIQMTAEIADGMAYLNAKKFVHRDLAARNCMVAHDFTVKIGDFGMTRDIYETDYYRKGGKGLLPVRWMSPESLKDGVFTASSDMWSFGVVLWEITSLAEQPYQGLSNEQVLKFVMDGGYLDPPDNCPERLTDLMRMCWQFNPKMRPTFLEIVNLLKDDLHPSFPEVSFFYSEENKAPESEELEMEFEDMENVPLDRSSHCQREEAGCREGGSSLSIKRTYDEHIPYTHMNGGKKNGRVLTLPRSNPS

[16] = target: human insulin receptor isoform with exon 11 (human) (UniProt P06213); assay: receptor binding, standard methods (FIG. 2)
[17] = target: T4, pig insulin receptor isoform with exon 11 (pig, UniProt F1SCL0 28-758; F1SCL0 763-1382); assay: receptor binding, standard methods (FIG. 2)
T4 construct: also called PIR+11; PIR + 11
Description: as §1

Molecule	relative affinity HIR +11 [1]	relative affinity RIR +11 [2]	relative affinity [11]	relative affinity [12]	relative affinity [13]	EC50 (FFC) [14]	relative affinity [15]	relative affinity [16]	relative affinity [17]	further results
SLEEEWAQIQCEVWGRGCPSESFYDWFERQL [compound 636]	117	79								
GSLDESFYDWFERQLG-(pox)2-SLEEEWAQIQCEVWGRGCPSY [compound 675]										EC50 (FFC) rel. to HI [3]: 25%; EC50 [3]: 0.26 nM
SLEEEWAQIECEVWGRGCPSEGFYNAIELLS [compound 726]	121	7.7								
SLEEEWAQIQEEVWGRGEPSESFYDWFERQL [compound 700]	53	13								relative affinity PIR +11 [4]: 4.3; relative affinity HIR −11 [5]: 70; relative affinity RIR −11 [6]: 10; relative affinity PIR −11 [7]: 1.4
Ac-SLEEEW-Aib-QIQCEVWGRPCPSEP-Dip-YGWFHEQLGPP (Ac-SLEEEW[Aib]QIQCEVWGRPCPSEP[Dip]YGWFHEQLGPP; cysteine pairing not given here) [compound 873]										Kd (HIR) rel. to HI [8]: 20%; stabilization towards all of the relevant enzymes as compared to S597 [9]: greater than 100 fold
SLEEEWAQIQCEVWGRGCPSESFYGWFERQL [compound 667]	127	112								dose dependence of glucose level modulation ([10]; 1.25, 2.5, 5 nmol/kg): dose-dependent IR-mediated glucose level modulation; blood glucose lowering compared with human insulin ([10]; S667 1.25, 2.5, 5 nmol/kg, HI 1.25 nmol/kg, up to 180 minutes): lower blood glucose to levels similar to human insulin at similar dosages
SLEEEWAQVECEVYERGCPSESFYDWFERQL [compound 696]	3.1	0.2								
Ac-SLE-Aib-EW-Aib-QIQCEVWGRPCPSEP-Dip-YGWFHEQLGPP [compound 874]										Kd (HIR) rel. to HI [8]: 8%
MeO-PEG5000-SLEEEWAQIECEVYGRGCPSESFYDWFERQL ({MeO‑PEG5000}-SLEEEWAQIECEVYGRGCPSESFYDWFERQL; cysteine pairing not given here) [compound 660]		9								
Ac-SLEHEW[Aib]QIQCEVWGRPCPSEP[Dip]YGWFHEQLGPP (cysteine pairing not given here) [compound 872]										Kd (HIR) rel. to HI [8]: 6%
SLEEEWAQIECEVYGRGCPSVRGFQGGTVWPGYEWLRNAAKK [compound 626]	78	12								
Ac-SLE-Aib-EW-Aib-QIQCEVWGRGCPSESFYDWFERQL [compound 663]										EC50 (FFC) rel. to HI [3]: 15%; EC50 [3]: 0.43 nM
SLEEEWAQIEAEVWGRGAPSESFYDWFERQLG [S574]	8.2	2								
Ac-SLEEEWAQIQCEVWGRGCPK(ε-carboxyfluorescein)ESFYGWFERQLG [compound 871]										Kd (HIR) rel. to HI [8]: 4%
SLEEEWAQIQCEVWGRGCPSESFYGWFERQLG [compound 733]	290	211								
SLEHEWAQIQCEVWGRGCPSEPFYGWFERQLG [compound 800]										Kd (HIR) rel. to HI [8]: 07%
Ac-SLEEEWAQIQCEVWGRGCPSESFYDWFERQLG (cysteine pairing not given here) [S671]			39	86	23	0.1 nM	65	98		EC50 (FFC) rel. to HI [14]: 65%
SLEEEWAQIEAEVWGRGAPSESFYDWFERQLG [S574]			0.9	8.3	0.2		2	8.2	0.4	
Ac-SLEEEWAQIQCEVWGRGCPSESFYGWFERQLG (cysteine pairing not given here) [S733]			179	281	111	0.12 nM	211	290	228	EC50 (FFC) rel. to HI [14]: 61%
SLEEEWAQIECEVYGRGCPSVRGFQGGTVWPGYEWLRNAAKK [S626]			11	59	1	9.7 nM	12	78	3	EC50 (FFC) rel. to HI [14]: 0.4%
Ac-SLEEEWAQIECEVWGRGCPSEGFYNAIELLS (cysteine pairing not given here) [S726]			13	83	1.3	19 nM	7.7	121	5.9	EC50 (FFC) rel. to HI [14]: 0.3%
Ac-SLEEEWAQIQCEVWGRGCPSESFYDWFERQL (cysteine pairing not given here) [S636]			50	106	32	0.056 nM	79	117	68	EC50 (FFC) rel. to HI [14]: 98%
{MeO‑PEG5000}-SLEEEWAQIECEVYGRGCPSESFYDWFERQL (cysteine pairing not given here) [S660]			6.5	52	5.5	2 nM	9	58	12	EC50 (FFC) rel. to HI [14]: 3.3%
SLEEEWAQVECEVYERGCPSESFYDWFERQL [S696]			0.3	3.3	0.3	870 nM	0.2	3.1	0.8	
Ac-SLEEEWAQIQCEVWGRGCPSESFYGWFERQL (cysteine pairing not given here) [S667]			44	111	47	0.21 nM	112	127	84	EC50 (FFC) rel. to HI [14]: 31%
